Reference: patent US20050272636A1, “Treatment and diagnosis of a reproductive disorder by measuring or inhibiting interferon-gamma” (Adelaide Research & Innovation Pty Ltd., priority 2002, published 2005)

Assays:
[1] = system: murine uterine epithelial cells; experiment: Effect of IFNγ on GM-CSF synthesis in murine uterine epithelial cells (Example 3); format: cell-based, mouse
Description: Uterine Epithelial Cell Cultures. Uterine epithelial cells prepared by pancreatin-trypsin digest as previously described (Robertson et al., (1992) Biol. Reprod. 46:1069-1079) were pooled from 4-6 estrous adult C57B1/6×CBA F1 female mice and plated in 1 ml culture wells (Nunc, Roskilde, Germany) at 1-2×10^5 cells per ml in 500 μl of RPMI containing 10% FCS and streptomycin (RPMI-FCS). Penicillin was omitted from culture media except where specified. After 4 h incubation at 37° C. in 5% CO2 to allow cell adherence, a further 500 μl of cytokines or antibodies in RPMI-FCS, or RPMI-FCS alone, were added. Cytokine treatments included recombinant mouse interferon-γ (rmIFNγ; R&D Systems), recombinant human transforming growth factor β1 (rhTGFβ1, R&D Systems), rhTGFβ2 (R&D Systems), rhTGFβ3 (OSI Pharmaceuticals). Antibody treatments included goat anti-mouse IFNγ receptor 1 (αIFNγR; R&D Systems AF1026) and hamster anti-mouse IFNγ (αIFNγ; R&D Systems MAB4851). Culture supernatants were collected and replaced with fresh complete RPMI-FCS alone at 16 hours, then collected again 24 hours later, at which time adherent cells were quantified as previously described (Robertson et al., (1992) Biol. Reprod. 46:1069-1079). The GM-CSF content of 24 h supernatants was determined by GM-CSF bioassay or immunoassay. All treatments were performed in duplicate or triplicate.
GM-CSF bioassay and immunoassay: Bioactive GM-CSF was assayed using the GM-CSF dependant cell line FD 5/12, essentially as previously described (Robertson et al., (1992) Biol. Reprod. 46:1069-1079). Cell proliferation was determined by the addition of 1 μCi of [^3H]-thymidine per well for the last 6 h of the assay. […] GM-CSF immunoactivity was in some experiments measured by commercial mouse GM-CSF specific ELISA (R & D Systems) according to the manufacturer's instructions.

[2] = system: uterine luminal fluid content of GM-CSF; experiment: Effect of IFN-γ treatment on GM-CSF content of uterine luminal fluids in mice (Example 7); format: in vivo; details: 5 ng or 20 ng transcervical on day 1 of pregnancy; fluids 7 hrs later; p=0.03 versus PBS control, treatment groups combined
Description: Mice were housed under specific pathogen-free conditions at the University of Adelaide Medical School Animal House on a 12:12 light-dark cycle, and were administered food and water ad libitum. Adult C57B1/6×CBA F1 females (7-10 weeks old) were caged with proven fertile Balb/c males for natural mating. The day of sighting a vaginal plug was nominated day 1 of pregnancy. Mice were randomly allocated to one of three groups and administered transcervical treatments of either 5 ng or 20 ng recombinant mouse IFN-γ (rmIFN-γ; R&D Systems) in 30 μl PBS containing 0.1% bovine serum albumin (PBS-BSA), or PBS-BSA alone (PBS control), at 0900 h on day 1. Treatments were delivered directly into the uterine lumen with the aid of a tom-cat catheter (Sovereign, St Louis Mo.), after removal of vaginal plugs using forceps to allow transcervical access. Mice were sacrificed 7 hrs later at 1600 h on day 1, and uterine luminal fluids were flushed in 1 ml PBS-BSA with a syringe and 26 gauge needle.
GM-CSF immunoactivity in uterine luminal fluids was measured by commercial mouse GM-CSF specific ELISA (R & D Systems) according to the manufacturer's instructions. Data are given as GM-CSF content in pg/ml uterine luminal fluid.

[3] = system: murine uterine epithelial cells; experiment: Effect of rIFNγ and rTGFβ on GM-CSF production in cultured uterine epithelial cells (Example 2); format: cell-based, mouse
Description: Uterine Epithelial Cell Cultures. Uterine epithelial cells prepared as previously described (Robertson et al., Biol Reprod 46:1069-1079 (1992)) were pooled from 4-6 estrous C57B1/6 or C57B1/6×Balb/c F1 mice and plated in 1 ml culture wells (Nunc, Roskilde, Germany) at 1-2×10^5 cells per ml in 500 μl of Dulbecco's modified Eagles medium containing 10% FCS, […] streptomycin sulphate and […] benzyl penicillin (DMEM +penicillin). After 4 h incubation at 37° C. in 5% CO2 to allow cell adherence, a further 500 μl of DMEM +penicillin, or DMEM +penicillin plus recombinant mouse IFNγ (rIFNγ) and/or recombinant human TGFβ1 (rTGFβ), were added. In some experiments, penicillin-free DMEM (DMEM −penicillin) was used throughout. Culture supernatants were collected and replaced with fresh medium at 16 hours, then collected again 24 hours later, at which time GM-CSF content was determined and adherent cells were quantified as previously described (Robertson et al., Biol Reprod 46:1069-1079 (1992)). All treatments were performed in duplicate or triplicate. rTGFβ and rIFNγ were obtained from R&D Systems, UK.
GM-CSF bioassay: GM-CSF was assayed using the GM-CSF dependant cell line FD 5/12, essentially as previously described (Robertson et al., Biol Reprod 46:1069-1079 (1992)). Cell proliferation was determined by pulsing with 1 μCi of [^3H]-thymidine per well for the last 6 h of the assay. The minimal detectable amount of GM-CSF was 20 pg/ml. The identity of the bioactivity in uterine epithelial cell cultures was confirmed using a goat polyclonal antibody to murine GM-CSF (DNAX, Palo Alto, Calif.) as previously described (Robertson et al., Biol Reprod 46:1069-1079 (1992)). GM-CSF production is expressed as ng GM-CSF/10^5 cells/24 h. Recombinant mouse GM-CSF was obtained from R&D Systems.

B1: rIFNγ: recombinant mouse IFNγ (R&D Systems) (protein, UniProt P01580 23-155, looked up)
Interferon gamma: HGTVIESLESLNNYFNSSGIDVEEKSLFLDIWRNWQKDGDMKILQSQIISFYLRLFEVLKDNQAISNNISVIESHLITTFFSNSKAKKDAFMSIAKFEVNNPQVQRQAFNELIRVVHQLLPESSLRKRKRSRC
IFNγ concentration giving significant inhibition (GM-CSF synthesis <50% of control values) [1]: > 150 pg/mL
IFNγ concentration inhibiting GM-CSF synthesis (<50% of control values) ([1]; absence of penicillin): ≥ 9.8 pg/mL
IFNγ concentration at which inhibition of GM-CSF synthesis was evident ([1]; more than six experiments, penicillin omitted): ≥ 40 pg/mL
effect on uterine luminal fluid content of GM-CSF [2]: reduce uterine luminal fluid content of GM-CSF
rIFNγ concentrations at which an inhibitory effect was not seen ([3]; DMEM +penicillin): less than 150 pg/ml
rIFN-γ concentration eliciting maximal decrease in GM-CSF production ([3]; DMEM +penicillin, dose-dependent decrease in each of three experiments): ≥ 2.5 ng/mL
rIFNγ concentration giving maximal decrease in GM-CSF production ([3]; DMEM -penicillin, three experiments): ≥ 2.5 ng/mL
rIFNγ concentration at which inhibitory effect was still observed ([3]; absence of penicillin): 2 pg/mL
lowest effective concentration of rIFNγ ([3]; in the presence of 0.5 ng/ml rTGFβ): 39 pg/mL
lowest effective inhibitory concentration of rIFNγ ([3]; in the presence of 5 ng/ml of rTGFβ): 2.5 ng/mL
rIFNγ concentration with maximal inhibition of rTGFβ induction of GM-CSF synthesis ([3]; rTGFβ-stimulated cells, DMEM +penicillin): ≥ 2.5 ng/mL
